Where a chain is given by its changes, count along the chain named. Each block holds one binder with its values, some of them ahead of it.
Legend:
[1] = target: T1, Bax (UniProt Q07812 1-192, limits assumed); experiment: co-immunoprecipitation with anti-Myc beads from HEK293T lysates, anti-Bax immunoblot (FIG. 4A)
T1 construct: also called pcDNA3-Bax
Experimental: 293T cells (5×10₆) cultured with 50 uM […]-Val-Ala-Asp-fluoromethylketone (ZVAD-fmk, Bachem) were co-transfected with 1.5 ug of pcDNA3-Myc-Bcl-B, pcl-Neo-Flag-Bcl-B, pcDNA3-hCBP (Human Calcyclin Binding Protein) (used as a control), or pcDNA3-Flag-BCI-XL, together with 1.5 ug of pEGFP, pEGFP-Bcl-B, pcDNA3-HA-BAG1, pcDNA3-HA-Bax, pcDNA3-Flag-Bcl-XL, pRC-CMV-Bcl-2 or pEGFP-Bak. At 24 hrs post-transfection, cells were collected and resuspended in lysis buffer (142.4 mM KCI, 5 mM MgCl₂, 10 MM HEPES (pH 7.4), 0.5 mM EGTA, 0.2% NP-40) containing 12.5 mM p-glycerophosphate, 2 mM NaF, 1 mM Na₃VO₄, 1 mM DTT, 1 mM PMSF and a protease inhibitor mixture (Boehringer Mannheim). Soluble lysates were incubated with 10 ul anti-Myc (Santa Cruz) or anti-Flag (Sigma) antibody conjugated Sepharose beads overnight at 4° C. Beads were washed four times in 1.5 ml lysis buffer, and boiled in Laemmli gel-loading solution before performing SDS-PAGE/immunoblotting. The following polyclonal or monoclonal antibodies were used: polyclonal rabbit anti-GFP (Roche), monoclonal rat anti-HA (Roche), monoclonal mouse anti-Flag (Sigma), monoclonal mouse anti-Myc (Santa Cruz), rabbit anti-huBcl—2, or rabbit anti-huBcl-XL (Krajewski, et al., Am. J. Pathol. 145, 515-525 (1994); Krajewski et al., Cancer Res. 54, 5501-5507 (1994)).
Binding studies confirmed that binding between Bcl-B and Bax mediates suppression of apoptosis by Bax. In brief, HEK293T cells were transiently transfected with several Myc-tagged constructs (human calcyclin-binding protein, wildtype Bcl-B, L86A, R96Q, FFR(169-171)AAA, Δ118-133) and cell lysates were prepared and immunoprecipitated with anti-Myc antibody conjugated to beads. Immunoprecipitates were subjected to SDS-PAGE/immunoblot analysis using rabbit polyclonal antibodies specific for Bax (FIG. 4A). To confirm expression of proteins, lysates were subject to immunoblot analysis using antibodies specific for Bax and Myc.

[2] = target: T2, GFP-Bak (UniProt Q16611 1-211); experiment: co-immunoprecipitation from transfected 293T cell lysates, immunoblot
T2 construct: also called pEGFP-Bak; not shown: EGFP from a pEGFP vector
T2 sequence (looked up): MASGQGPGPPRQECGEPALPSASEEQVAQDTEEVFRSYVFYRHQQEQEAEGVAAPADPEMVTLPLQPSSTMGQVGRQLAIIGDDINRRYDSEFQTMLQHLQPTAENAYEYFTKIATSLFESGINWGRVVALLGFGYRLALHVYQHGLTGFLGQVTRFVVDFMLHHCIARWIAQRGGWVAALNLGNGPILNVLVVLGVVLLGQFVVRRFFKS

T1 sequence (Q07812 whole entry): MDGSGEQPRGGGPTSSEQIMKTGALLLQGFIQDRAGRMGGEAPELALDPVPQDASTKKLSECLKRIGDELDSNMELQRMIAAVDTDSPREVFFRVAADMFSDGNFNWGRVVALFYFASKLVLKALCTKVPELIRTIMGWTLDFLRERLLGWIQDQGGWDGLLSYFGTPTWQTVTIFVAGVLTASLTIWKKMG

- binding result [1]: no binding
B1: Myc-Bcl-B deletion 118-133 (other, not shown: small tags and cut ends)
chain: MVDQLRERTTMADPLRERTELLLADYLGYCAREPGTPEPAPSTPEAAVLRSAAARLRQIHRSFFSAYLGYPGNRFELVALMADSVLSDSPGPTWGRVVTLVTFAGTLLERGPLVTARVARDCQRLVALLSSRLMGQHRAWLQAQGGWDGFCHFFRTPFPLAFWRKQLVQAFLSCLLTTAFIYLWTRLL
notes: also called (delta)118-133

- binding result [2]: no binding
B2: Myc-Bcl-B (other, not shown: small tags and cut ends)
chain: MVDQLRERTTMADPLRERTELLLADYLGYCAREPGTPEPAPSTPEAAVLRSAAARLRQIHRSFFSAYLGYPGNRFELVALMADSVLSDSPGPTWGRVVTLVTFAGTLLERGPLVTARWKKWGFQPRLKEQEGDVARDCQRLVALLSSRLMGQHRAWLQAQGGWDGFCHFFRTPFPLAFWRKQLVQAFLSCLLTTAFIYLWTRLL
notes: Expressed in 293T cells and immunoprecipitated from lysates; also called wildtype Bcl-B; pcDNA3-Myc-Bcl-B

- binding result [1]: no binding
B3: Myc-Bcl-B R96Q (other, not shown: small tags and cut ends)
chain: B2 chain with R96Q
notes: Myc-tagged Bcl-B point mutant

- binding result [1]: no binding
B4: Myc-Bcl-B L86A (other, not shown: small tags and cut ends)
chain: B2 chain with L86A
notes: Myc-tagged Bcl-B point mutant

From patent publication US20030176671A1 (SANFORD BURNHAM MEDICAL RESEARCH INSTITUTE, published 2003)
